This passage reports Kd results from article PMC9352680, “A comprehensive thermodynamic model for RNA binding by the Saccharomyces cerevisiae Pumilio protein PUF4”.

Usually Kd stands for the concentration at which binding is half-saturated. A higher Kd goes with weaker binding.

This series addresses T1, PUF4 RNA-binding domain (Saccharomyces cerevisiae, UniProt P25339 537-888).
T1 sequence: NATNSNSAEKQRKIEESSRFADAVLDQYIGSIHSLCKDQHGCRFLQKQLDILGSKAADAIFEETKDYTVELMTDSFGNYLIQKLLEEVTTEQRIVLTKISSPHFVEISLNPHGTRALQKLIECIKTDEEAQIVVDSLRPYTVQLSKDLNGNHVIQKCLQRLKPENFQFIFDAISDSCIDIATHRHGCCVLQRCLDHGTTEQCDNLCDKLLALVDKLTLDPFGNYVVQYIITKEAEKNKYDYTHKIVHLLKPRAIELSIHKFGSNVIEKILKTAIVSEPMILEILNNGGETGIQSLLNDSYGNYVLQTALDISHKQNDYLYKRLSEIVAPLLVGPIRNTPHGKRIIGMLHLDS
The series is described as follows: Mg; RNA-MaP; 20 mM Na-HEPES pH 7.4, 30 mM KOAc, 0.75 mM MgCl2, 0.1% Tween-20, 5% glycerol, 0.1 mg/mL BSA, 2 mM DTT; 25 C; 0.0125-409.6 nM protein. Particulars: tags: N-His6-TEV cleaved; C-SNAP kept, Cy3B-labelled; label: tethered on chip by stalled RNA polymerase.

B1: Ib_S1_P4E.1_K4.1_C4.1_H4.1_[G2T]_A4.1_F4.1_[T8A]_T4.1 (ssRNA)
RNA: UCUCUUUUUAUAUAAUCUCUU
In the case of B1, binding was put at a Kd of 2120 nM.

B2: Ic_S2_P5E.1_K5.1_C5.1_H5.1_A5.1_[T6C]_F5.1_[T8A]_[T9A]_[A10C]_T5.1 (ssRNA)
RNA: UUUGAUUAAUAUGAUAUCGUUCUUUCUUGUAUCAAACUUCUUUCUCGAUAUCAUAUUAAUCUUU
Take B2: the affinity, expressed as Kd, was 170 nM.

B3: Ic_S2_P5E.1_K5.1_C5.1_H5.1_A5.1_[T6A]_[A7G]_F5.1_[T9A]_[A10C]_T5.1 (ssRNA)
RNA: UUUGAUUAAUAUGAUAUCGUUCUUUCUUGUAUAGUACUUCUUUCUCGAUAUCAUAUUAAUCUUU
B3 had a Kd of 2.48 nM.

B4: Ic_S2_P5E.1_K5.1_C5.1_H5.1_A5.1_[T5A]_[T6A]_[A7C]_F5.1_[T9G]_[A10G]_T5.1 (ssRNA)
RNA: UUUGAUUAAUAUGAUAUCGUUCUUUCUUGUAAACUGGUUCUUUCUCGAUAUCAUAUUAAUCUUU
B4 yielded a Kd of 26 nM.

B5: Ic_S2_P5E.1_K5.1_C5.1_H5.1_A5.1_[T5A]_[T6C]_[A7T]_F5.1_[T8C]_[T9A]_T5.1 (ssRNA)
RNA: UUUGAUUAAUAUGAUAUCGUUCUUUCUUGUAACUCAAUUCUUUCUCGAUAUCAUAUUAAUCUUU
With B5, binding was characterised by a dissociation constant (Kd) of 1040 nM.

B6: Ic_S2_P5E.1_K5.1_C5.1_H5.1_A5.1_[T5A]_[T6C]_[A7C]_F5.1_[T9A]_[A10T]_T5.1 (ssRNA)
RNA: UUUGAUUAAUAUGAUAUCGUUCUUUCUUGUAACCUAUUUCUUUCUCGAUAUCAUAUUAAUCUUU
Take B6: binding was put at a Kd of 4.74 nM.

B7: Ic_S2_P5E.1_K5.1_C5.1_H5.1_A5.1_[T5C]_[T6G]_[A7T]_F5.1_[T8G]_[T9C]_[A10C]_T5.1 (ssRNA)
RNA: UUUGAUUAAUAUGAUAUCGUUCUUUCUUGUACGUGCCUUCUUUCUCGAUAUCAUAUUAAUCUUU
As to B7, binding was characterised by a dissociation constant (Kd) of 205 nM.

B8: Ic_S2_P5E.1_K5.1_C5.1_H5.1_A5.1_[T5C]_[A7G]_F5.1_[T8G]_[T9C]_[A10T]_T5.1 (ssRNA)
RNA: UUUGAUUAAUAUGAUAUCGUUCUUUCUUGUACUGGCUUUCUUUCUCGAUAUCAUAUUAAUCUUU
B8 gave a Kd of 1660 nM.

B9: Ic_S2_P5E.1_K5.1_C5.1_H5.1_A5.1_[T5C]_[T6C]_[A7T]_F5.1_[T8C]_[T9G]_[A10C]_T5.1 (ssRNA)
RNA: UUUGAUUAAUAUGAUAUCGUUCUUUCUUGUACCUCGCUUCUUUCUCGAUAUCAUAUUAAUCUUU
In turn, B9 yielded a Kd of 101 nM.

B10: Ic_S2_P5E.1_K5.1_C5.1_H5.1_A5.1_[T6C]_F5.1_[T8A]_[A10T]_T5.1 (ssRNA)
RNA: UUUGAUUAAUAUGAUAUCGUUCUUUCUUGUAUCAAUUUUCUUUCUCGAUAUCAUAUUAAUCUUU
Molecule B10 gave a Kd of 29.9 nM.

B11: Ic_S2_P5E.1_K5.1_C5.1_H5.1_A5.1_[T5C]_[T6G]_[A7C]_F5.1_[T8G]_[T9C]_[A10C]_T5.1 (ssRNA)
RNA: UUUGAUUAAUAUGAUAUCGUUCUUUCUUGUACGCGCCUUCUUUCUCGAUAUCAUAUUAAUCUUU
The molecule B11 came in with a Kd of 548 nM.

B12: Ic_S2_P5E.1_K5.1_C5.1_H5.1_A5.1_[T5G]_[T6C]_[A7T]_F5.1_[T8C]_[A10C]_T5.1 (ssRNA)
RNA: UUUGAUUAAUAUGAUAUCGUUCUUUCUUGUAGCUCUCUUCUUUCUCGAUAUCAUAUUAAUCUUU
In turn, B12 had a Kd of 383 nM.

B13: Ic_S2_P5E.1_K5.1_C5.1_H5.1_A5.1_[T5C]_[T6G]_[A7T]_F5.1_[T9G]_[A10T]_T5.1 (ssRNA)
RNA: UUUGAUUAAUAUGAUAUCGUUCUUUCUUGUACGUUGUUUCUUUCUCGAUAUCAUAUUAAUCUUU
Consider B13, for which the dissociation constant Kd was 31.8 nM.

B14: Ic_S2_P5E.1_K5.1_C5.1_H5.1_A5.1_[T5C]_F5.1_[T8A]_[T9A]_T5.1 (ssRNA)
RNA: UUUGAUUAAUAUGAUAUCGUUCUUUCUUGUACUAAAAUUCUUUCUCGAUAUCAUAUUAAUCUUU
In turn, B14 yielded a Kd of 55.1 nM.

B15: Ic_S2_P5E.1_K5.1_C5.1_H5.1_A5.1_[T5A]_[T6C]_[A7T]_F5.1_[T8A]_[T9G]_[A10T]_T5.1 (ssRNA)
RNA: UUUGAUUAAUAUGAUAUCGUUCUUUCUUGUAACUAGUUUCUUUCUCGAUAUCAUAUUAAUCUUU
In turn, B15 gave a Kd of 737 nM.

B16: Ic_S2_P5E.1_K5.1_C5.1_H5.1_A5.1_[T5C]_[T6G]_[A7T]_F5.1_[T8C]_[T9C]_[A10C]_T5.1 (ssRNA)
RNA: UUUGAUUAAUAUGAUAUCGUUCUUUCUUGUACGUCCCUUCUUUCUCGAUAUCAUAUUAAUCUUU
In turn, B16 registered a dissociation constant Kd of 167 nM.

B17: Ic_S2_P5E.1_K5.1_C5.1_H5.1_A5.1_[T5G]_[T6C]_[A7C]_F5.1_[T9A]_[A10T]_T5.1 (ssRNA)
RNA: UUUGAUUAAUAUGAUAUCGUUCUUUCUUGUAGCCUAUUUCUUUCUCGAUAUCAUAUUAAUCUUU
B17 displayed a Kd of 4.62 nM.

B18: Ic_S2_P5E.1_K5.1_C5.1_H5.1_A5.1_[T5G]_[T6C]_[A7T]_F5.1_[A10T]_T5.1 (ssRNA)
RNA: UUUGAUUAAUAUGAUAUCGUUCUUUCUUGUAGCUUUUUUCUUUCUCGAUAUCAUAUUAAUCUUU
Take B18: the Kd is 37.5 nM. Compared with the last molecule, the Kd is about 8.1-fold higher.

B19: Ic_S2_P5E.1_K5.1_C5.1_H5.1_A5.1_[T5G]_[T6C]_[A7C]_F5.1_[T8C]_[A10T]_T5.1 (ssRNA)
RNA: UUUGAUUAAUAUGAUAUCGUUCUUUCUUGUAGCCCUUUUCUUUCUCGAUAUCAUAUUAAUCUUU
Molecule B19 yielded a Kd of 254 nM.

B20: Ic_S2_P5E.1_K5.1_C5.1_H5.1_A5.1_[T5C]_[T6A]_[A7T]_F5.1_[T8G]_T5.1 (ssRNA)
RNA: UUUGAUUAAUAUGAUAUCGUUCUUUCUUGUACAUGUAUUCUUUCUCGAUAUCAUAUUAAUCUUU
With B20, the affinity, expressed as Kd, was 2.58 nM.

B21: Ic_S2_P5E.1_K5.1_C5.1_H5.1_A5.1_[T5C]_[A7C]_F5.1_[T8A]_[T9G]_[A10C]_T5.1 (ssRNA)
RNA: UUUGAUUAAUAUGAUAUCGUUCUUUCUUGUACUCAGCUUCUUUCUCGAUAUCAUAUUAAUCUUU
On to B21, for which the Kd was found to be 818 nM.

B22: Ic_S2_P5E.1_K5.1_C5.1_H5.1_A5.1_[T5G]_[T6C]_F5.1_[T8C]_[A10G]_T5.1 (ssRNA)
RNA: UUUGAUUAAUAUGAUAUCGUUCUUUCUUGUAGCACUGUUCUUUCUCGAUAUCAUAUUAAUCUUU
In turn, B22 returned a Kd of 794 nM. The Kd values of the last two molecules are within 1.5-fold of each other.

B23: Ic_S2_P5E.1_K5.1_C5.1_H5.1_A5.1_[T5C]_[T6A]_[A7C]_F5.1_[T9G]_[A10G]_T5.1 (ssRNA)
RNA: UUUGAUUAAUAUGAUAUCGUUCUUUCUUGUACACUGGUUCUUUCUCGAUAUCAUAUUAAUCUUU
B23 gave a Kd of 4.81 nM.

B24: Ic_S2_P5E.1_K5.1_C5.1_H5.1_A5.1_[T5G]_F5.1_[T8A]_[T9C]_[A10C]_T5.1 (ssRNA)
RNA: UUUGAUUAAUAUGAUAUCGUUCUUUCUUGUAGUAACCUUCUUUCUCGAUAUCAUAUUAAUCUUU
In turn, B24 came in with a dissociation constant Kd of 832 nM.

B25: Ic_S2_P5E.1_K5.1_C5.1_H5.1_A5.1_[T5C]_[T6C]_[A7T]_F5.1_[T8C]_[T9C]_T5.1 (ssRNA)
RNA: UUUGAUUAAUAUGAUAUCGUUCUUUCUUGUACCUCCAUUCUUUCUCGAUAUCAUAUUAAUCUUU
For B25, binding was put at a Kd of 110 nM.

B26: Ic_S2_P5E.1_K5.1_C5.1_H5.1_A5.1_[T6A]_[A7G]_F5.1_[T9C]_[A10C]_T5.1 (ssRNA)
RNA: UUUGAUUAAUAUGAUAUCGUUCUUUCUUGUAUAGUCCUUCUUUCUCGAUAUCAUAUUAAUCUUU
B26 came in with a Kd of 17.8 nM.

B27: Ic_S2_P5E.1_K5.1_C5.1_H5.1_A5.1_[T5C]_[T6C]_[A7G]_F5.1_[T8A]_[T9C]_[A10C]_T5.1 (ssRNA)
RNA: UUUGAUUAAUAUGAUAUCGUUCUUUCUUGUACCGACCUUCUUUCUCGAUAUCAUAUUAAUCUUU
B27 yielded a Kd of 1140 nM.

B28: Ic_S2_P5E.1_K5.1_C5.1_H5.1_A5.1_[T5G]_[A7C]_F5.1_[T8A]_[T9C]_[A10T]_T5.1 (ssRNA)
RNA: UUUGAUUAAUAUGAUAUCGUUCUUUCUUGUAGUCACUUUCUUUCUCGAUAUCAUAUUAAUCUUU
Take B28: the affinity, expressed as Kd, was 722 nM.

B29: Ic_S2_P5E.1_K5.1_C5.1_H5.1_A5.1_[T5C]_[T6A]_[A7T]_F5.1_[T9A]_T5.1 (ssRNA)
RNA: UUUGAUUAAUAUGAUAUCGUUCUUUCUUGUACAUUAAUUCUUUCUCGAUAUCAUAUUAAUCUUU
As to B29, the Kd is 0.373 nM.

B30: Ic_S2_P5E.1_K5.1_C5.1_H5.1_A5.1_[T6C]_[A7G]_F5.1_[T8G]_T5.1 (ssRNA)
RNA: UUUGAUUAAUAUGAUAUCGUUCUUUCUUGUAUCGGUAUUCUUUCUCGAUAUCAUAUUAAUCUUU
For B30, the Kd was determined as 37.7 nM.

B31: Ic_S2_P5E.1_K5.1_C5.1_H5.1_A5.1_[T5C]_[A7C]_F5.1_[T9C]_[A10G]_T5.1 (ssRNA)
RNA: UUUGAUUAAUAUGAUAUCGUUCUUUCUUGUACUCUCGUUCUUUCUCGAUAUCAUAUUAAUCUUU
B31 returned a Kd of 152 nM.

B32: Ia_S1_P4E.1_K4.1_C4.1_H4.1_[G2C]_A4.1_F4.1_T4.1 (ssRNA)
RNA: UCUCUUUCUAUAUUAUCUCUU
In turn, B32 displayed a Kd of 1380 nM.

B33: Ib_S1_P4E.1_K4.1_C4.1_H4.1_[G2A]_A4.1_F4.1_[T8C]_T4.1 (ssRNA)
RNA: UCUCUUUAUAUAUCAUCUCUU
For the molecule B33, binding was put at a Kd of 1060 nM.

B34: Ib_S1_P4E.1_K4.1_C4.1_H4.1_[G2A]_A4.1_F4.1_[T8A]_T4.1 (ssRNA)
RNA: UCUCUUUAUAUAUAAUCUCUU
B34: the Kd was 532 nM.
